The results in this text go back to article PMC10426277.

For the experiment, the target named is Peroxiredoxin 4 wildtype, recombinant full-length (human) (UniProt Q13162). Nature of the experiment: SPR. (In SPR one partner is held on a chip, and binding of the other changes the refractive index at the surface.)

In general, Kd refers to the constant that tells how readily two partners part at equilibrium. Broadly, the koff is a measure of how fast the partners let go of each other. As usually defined, the kon is the rate constant with which the complex forms.

Sequence of Sulfiredoxin (Srx), recombinant full-length (Q9BYN0 whole entry): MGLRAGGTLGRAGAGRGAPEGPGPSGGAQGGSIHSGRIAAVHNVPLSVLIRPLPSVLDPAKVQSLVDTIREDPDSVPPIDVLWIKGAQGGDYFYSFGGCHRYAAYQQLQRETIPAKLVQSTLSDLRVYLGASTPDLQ

Turning to “Sulfiredoxin (Srx), recombinant full-length (from UniProt Q9BYN0 1-137) (enzyme)”, the equilibrium dissociation constant (Kd) came out at 3.26 mM, the koff was found to be 0.00166 s⁻¹ and the kon came to 0.509 M⁻¹ s⁻¹.
